One block for each molecule: values may come before it. Peptide text beside a SMILES is read from it. * marks the point of attachment. MeOSuc = COC(=O)CCC(=O)*; CH2Cl = ClC*
Key:
[1] = test system: hNE-induced alveolar-capillary damage; experiment: hNE-induced acute lung injury mouse model; assay type: in vivo, mice; details: nasal instillation 15 min prior to hNE 25 μg; molar ratio Nb/HNE 4/1
Description: The in vivo efficacy of NbE201 was determined using a mouse model of acute lung injury induced by nasal instillation of HNE (L agente et al., 2009, American Thoracic Society International Conference Abstracts. (American Thoracic Society), A5668. doi: 10.1164/ajrccm-conference.2009.179.1_MeetingAbstracts.A5668). […]
It was determined with the hemoglobin assay kit (Sigma) and performed according to the manufacturer's instructions. […] A measurement of the optical density at 400 nm allowed the quantification of this stable complex. […]
Histological sections of the lung were digitized using a panoramic scan 2 (3[…]). […] This semi-automated analysis made it possible to quantify the damaged alveolar surface. […] The percentage of injured surface was determined by the ratio: % injured area=(injured area/alveolar area)×100

hNE = target: T1, hNE (Homo sapiens, UniProt P08246); experiment: hNE inhibition, hydrolysis of elastin (Elastin-CongoRed); assay type: biochemical
T1 construct: purchased Elastin Products Company (EPC)
T1 sequence (P08246 30-247): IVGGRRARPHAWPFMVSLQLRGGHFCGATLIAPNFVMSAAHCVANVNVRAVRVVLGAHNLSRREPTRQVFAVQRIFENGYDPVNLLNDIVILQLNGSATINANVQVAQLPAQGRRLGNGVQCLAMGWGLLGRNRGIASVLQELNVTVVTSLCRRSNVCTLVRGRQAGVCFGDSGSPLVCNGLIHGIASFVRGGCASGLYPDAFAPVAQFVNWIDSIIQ
Description: 1.6.2. Inhibition of the hydrolysis of elastin, a natural substrate of hNE. […] The samples were incubated for 16 hours at 37° C. with orbital shaking (900 rpm). The samples were then centrifuged at 90′000 g for 30 minutes at 4° C. to separate the insoluble Elastin from the digested and soluble molecule fragments. The soluble fraction was transferred into a 384-wells clear plate and the absorbance of Congo-red was measured at 495 nm in a SpectraMax M2e Microplates Reader (Molecular Devices, California, USA). The absorbance of the samples at different inhibitor: hNE molar ratios was compared to that measured in the absence of inhibitor, to determine the residual hNE activity. A sample of Elastin-Congo red without elastase was used as blank.

[2] = target: T2, human neutrophil elastase (human, UniProt P08246 30-247, glycans (NAG-NAG-FUC) at N109 and N204, chymotrypsinogen numbering, seen in the crystal); experiment: capture of hNE on streptavidin magnetic beads via biotinylated NbE34 (phage panning)
T2 construct: Purified hNE bought from Elastin Products Company; In the crystal, density is defined for I1 to Q218; also called hNE; HNE
T2 sequence: T1 sequence (P08246 30-247)
Description: The recovery of the beads after each step was carried out on a magnetic stand for 1.5 ml Eppendorf tubes for two minutes. All the incubation steps took place at room temperature and in a shaker with vertical rotation. Washing steps were carried out with 500 μl phosphate-buffered saline solution with a detergent solution of 0.01% (PBST, PBS with 0.01%, % v/v, Tween 20). First, 0.04 mg of beads were functionalized with 4 μg of chemically biotinylated NbE34 in 1 ml of PBS. After 5 washings, the beads were incubated with 5 μg of hNE in 500 μL of PBS. A negative control tube with magnetic beads functionalized with NbE34 but without hNE was also prepared. Then, the beads in each tube were incubated in 500 μl of blocking buffer. The blocking buffer was casein 0.1% (% w/v), bovine serum albumin 0.1% (% w/v) or protein free-blocking buffer (ThermoFisher Scientific, United States) in rounds 1, 2 and 3, respectively. In the next step, 2×10¹¹ phages from the library were incubated in the positive and the negative tubes and incubated for 1 hour. The beads were washed at least 10 times with PBST (PBS containing 0.05%, % v/v, Tween 20), previous to the elution of phages with 200 μl of triethanolamine (TEA) pH 11 for 10 minutes and neutralization with 200 μl of trisaminomethane hydrochloric acid (Tris-HCl) 1M pH8. […]

[3] = Physical stress (nebulization, agitation, freeze/thaw): concentration by A280 nm before/after centrifugation; assay type: physicochemical; details: for Initial concentration percentage after centrifugation: 10 000 g 10 min
Description: A 0.25 mg/ml solution of NbE201, NbE201-PEG10 or NbE201-PEG40 was prepared and divided in order to apply the following conditions: control, 1 or 4 h of agitation with a magnetic bar, nebulization, 5 or 10 freeze/thaw cycles.
2.3.1 Stability towards agitation. 100 μl of a 0.25 mg/ml ISVDs solution were agitated in a 1 ml glass vial with a 2×5 mm magnetic bar (VWR, Radnor, USA) at 200 rpm during 1 or 4 hours.
2.3.2 Stability towards Nebulization. 300 μl of a 0.25 mg/ml ISVDs solution were nebulized with a MeSH nebulizer (InnoSpire Go, Phillips, Amsterdam, The Netherlands).
2.3.3 Stability towards freezing/thawing. 100 μl of a 0.25 mg/ml ISVDs solution underwent 5 or 10 freeze/thaw (F/T) cycles. Freezing was performed in a −20° C. freezer and thawing was performed at RT.
2.3.4 Concentration measurements. Concentrations and UV spectra were measured by spectrophotometry (NanoDrop 2000/2000c spectrophotometer, ThermoFisher). Concentrations were determined based on the absorbance at 280 nm. NbE201 and NbE201-Cter mass extinction coefficients applied to the measurements were 1.888 and 1.716 (mg/mL)^−1 cm^−1 respectively. Regarding the ISVDs exposed to physical stresses, the concentration was read before and after centrifugation at 10 000 g at 4° C. for 10 min.

[4] = Aggregates detection by Nanoparticle Tracking Analysis; assay type: physicochemical; details: 0.25 mg/ml, after nebulization
Description: 2.3.5 Aggregates Detection. Protein aggregates were visualized by Nanoparticle Tracking Analysis (NTA) (ZetaView, 220 Twin Laser, Particle Metrix, Ammersee, Germany), a technique used for measuring single particle size and concentration. NbE201, NbE201-PEG10 and NbE201-PEG40 solutions (0.25 mg/ml) were analysed before and after nebulization. 11 positions were analysed for which following parameters were used: • Laser wavelength: 488 nm • Scatter, no fluorescence • Sensitivity: 80 • Shutter: 100

[5] = target: T3, proteolytic (elastase) activity of cystic fibrosis patient sputa (Homo sapiens, UniProt P08246); experiment: Sputum proteolytic activity inhibition, cystic fibrosis sputa; assay type: biochemical; details: exposure time 0
T3 construct: Sputa from patients with cystic fibrosis, COPD or ciliary diskenisia above 18 years old were collected; from tissue; host or cells: expectorated sputum of patients with cystic fibrosis, COPD or ciliary dyskinesia
T3 sequence (P08246 30-267): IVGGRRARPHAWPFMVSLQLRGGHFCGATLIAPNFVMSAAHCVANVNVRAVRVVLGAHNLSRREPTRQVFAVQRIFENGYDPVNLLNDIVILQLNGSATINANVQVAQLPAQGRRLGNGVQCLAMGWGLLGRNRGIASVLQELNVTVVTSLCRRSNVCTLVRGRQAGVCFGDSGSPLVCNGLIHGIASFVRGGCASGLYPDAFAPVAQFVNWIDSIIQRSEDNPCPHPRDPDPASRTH
Description: 2.2.2 Evaluation of the proteolytic activity inhibition in CF, COPD and ciliary diskenisia sputa. […] Sputa collection procedures were evaluated by the local ethic committee (comité d'Ethique Hospitalo-Facultaire des Cliniques universitaires Saint-Luc) and approved under the Belgian registration number B4032021000071.
Sputum proteolytic activity was assessed by following with a spectrophotometer the absorbance at 410 nm of suc-Ala-Ala-Pro-Val-pNA degradation, the chromogenic hNE substrate. Sputa were classified as mucoid, muco-purulent or purulent (Serisier et al., 2009, Respir Res, 10 (1): 63. doi: 10.1186/1465-9921-10-6). According to the experiment, 10 to 20 mg of sputum were weighted in a 96-well plate. ISVDs were then added to the sputum samples and pre-incubated at 37° C. during different periods of time. The hNE substrate was diluted to a concentration of 1 mM in a tris buffer (0.1M tris, 0.5M NaCl, 0.01% Sodium azide (NaN3), pH 7.5) and 50 μl of this solution were added to the wells. The substrate degradation was followed during 50 min. […] Slopes were then calculated from the regression line drawn from the absorbance measurements and were expressed as a percentage of the sputum proteolytic activity without ISVDs.

Molecule: AAT: endogenous glycoprotein, covalent natural inhibitor of neutrophil elastase
protection against hNE-induced alveolar-capillary damage [1]: protects the lungs from developing alveolar-capillary damage

Molecule: COC(=O)CCC(=O)N[C@@H](C)C(=O)N[C@@H](C)C(=O)N1CCC[C@H]1C(=O)N[C@H](C(=O)CCl)C(C)C [EI3, methyl 4-[[(2S)-1-[[(2S)-1-[(2S)-2-[[(3S)-1-chloro-4-methyl-2-oxopentan-3-yl]carbamoyl]pyrrolidin-1-yl]-1-oxopropan-2-yl]amino]-1-oxopropan-2-yl]amino]-4-oxobutanoate, reference compound] (MeOSuc-AAPV-CH2Cl)
inhibition of hNE activity, elastin hydrolysis (hNE; [inhibitor]:[hNE] ratio 15): 95%

B2: NbE201-PEG10: NbE201-Cter (linker SPSTPPTPSPSTPP + C-terminal cysteine) conjugated to linear 10 kDa PEG-maleimide (conjugate)
VHH: QVQLQESGGGLVQAGGSLRLSCVVPGRTISLYRMGWFRQAPGKEREFVAGINWSGDMTDYVDSVKGRFTISRDNAKNTVYLEMNSLKPEDTAIYYCTADPKLLPLADSSYGYWGQGTQVTVSSSPSTPPTPSPSTPPC
Initial concentration percentage before centrifugation ([3]; Agitation (1 h)): 98 ± 1%
Initial concentration percentage after centrifugation ([3]; Agitation (1 h)): 97 ± 2%
Initial concentration percentage before centrifugation ([3]; Agitation (4 h)): 100 ± 1%
Initial concentration percentage after centrifugation ([3]; Agitation (4 h)): 93 ± 2%
Initial concentration percentage before centrifugation ([3]; Control): 100 ± 0%
Initial concentration percentage after centrifugation ([3]; Control): 94 ± 2%
Initial concentration percentage before centrifugation ([3]; F/T 5x): 99 ± 1%
Initial concentration percentage after centrifugation ([3]; F/T 5x): 99 ± 1%
Initial concentration percentage before centrifugation ([3]; F/T 10x): 98 ± 2%
Initial concentration percentage after centrifugation ([3]; F/T 10x): 98 ± 1%
Initial concentration percentage before centrifugation ([3]; Nebulization): 85 ± 2% (***)
Initial concentration percentage after centrifugation ([3]; Nebulization): 85 ± 3%
average counted particles per frame (NTA) [4]: far below that threshold
sputum proteolytic activity inhibition at time 0, compared with NbE201 [5]: No significant difference

The next lines start with the values.

inhibition of hNE activity, elastin hydrolysis (hNE; [inhibitor]:[hNE] = 50): 40%
Molecule: CC(C)(C)C(=O)Oc1ccc(S(=O)(=O)Nc2ccccc2C(=O)NCC(=O)O)cc1 [Sivelestat, reference compound]

binding result [2]: binds
B1: NbE34 (VHH)
VHH: QVQLQESGGGLVQPGGSLRLSCAASGFTLDYHAIGWFRQAPGKEREGVSCISSSGGRADYADSVKGRFTISRDNAKNTVYLQMNSLKPEDTAVYYCATRCAVVGGTYYYGMDYWGKGTQVTVSS
modifications: chemically biotinylated (sites not given)
notes: It was used to capture hNE on streptavidin beads for the panning; also called biotinylated capture ISVD NbE34

Source: patent US20260209387A1, “SINGLE-DOMAIN ANTIBODY FOR INHIBITION OF NEUTROPHIL ELASTASE ACTIVITY” (UNIVERSITE DE LIEGE, priority 2023, published 2026)
